Laboratory results as given in article PMC6171537 (Biochemistry and Biophysics Reports, 2018).

Biological target: the molecule itself
Assay: SEC-MALS

B1: LOV-HK (blue light-activated histidine kinase from Brucella abortus), construct 15-489 (enzyme)
chain: MALSQATDPFRAAVEFTLMPMLITNPHLPDNPIVFANPAFLKLTGYEADEVMGRNCRFLQGHGTDPAHVRAIKSAIAAEKPIDIDIINYKKSGEAFWNRLHISPVHNANGRLQHFVSSQLDVTLELSRLVELEKERKTLSIETARSKDQLDYIVEVANIGFWTREFYSGKMTCSAECRRIYGFTPDEPVHFDTILDLVVLEDRMTVVQKAHQAVTGEPYSIEYRIVTRLGETRWLETRAKALTGENPLVLGIVQDVTERKKAEANKALVSREIAHRFKNSMAMVQSIANQTLRNTYDPEQANRLFSERLRALSQAHDMLLKENWAGATIQQICATALAPFNSTFANRIHMSGPHLLVSDRVTVALSLAFYELATNAVKYGALSNEKGVINITWAIMEDKGEKKFHMRWAESRGPEVMQPARRGFGQRLLHSVLAEELKAKCDVEFAASGLLIDVLAPITPEVFPGMGHNVPEQRIA
notes: also called pET-24a-LOVHK-15-489
stoichiometry N: 2
